Source: patent US20080213252A1, “METHODS OF TREATING ITCH” (priority 2007, published 2008)

B1: papain: crystallized papain from Sigma, control cysteine protease (protein)
chain: IPEYVDWRQKGAVTPVKNQGSCGSCWAFSAVVTIEGIIKIRTGNLNEYSEQELLDCDRRSYGCNGGYPWSALQLVAQYGIHYRNTYPYEGVQRYCRSREKGPYAAKTDGVRQVQPYNEGALLYSIANQPVSVVLEAAGKDFQLYRGGIFVGPCGNKVDHAVAAVGYGPNYILIKNSWGTGWGENGYIRIKRGTGNSYGVCGLYTSSFYPVKN
B2: recombinant mucunain: M. pruriens cysteine protease expressed in E. coli, refolded and activated (protein)
chain: DNLPESVDWRNESAVLPVKDQGNCGSCWAFSTIGAVEGINKIVTGDLISLSEQELVDCDTSYNQGCNGGLMDYAYEFIINNGGIDSEEDYPYRAVDGTCDQYRKNAKVVTIDSYEDVPANDELALKKAVANQPVSVAIEGGGREFQLYVSGVFTGRCGTALDHGVVAVGYGSVKGHDYWIVRNSWGASWGEEGYVRLERNLAKSRSGKCGIAIEPSYPIKNGANPPNPGPSPPSPVKPPNVCDNSYSCSDSATCCCIFEFQKYCMVWGCCPLEAATCCDDHYSCCPHEYPICNVRAGTCLKGKNNPFGVKALRRTPAKPHWAFGGKNKVNSA
B3: mucunain: cysteine protease, itch-inducing component of spicules from M. pruriens (cowhage) (protein)
chain: B2 chain

Tests used:
skin of volunteers = experiment: Psychophysics: itch sensation after insertion of native or reconstituted cowhage spicules into skin; format: in vivo; details: human volunteers; autoclaved spicules soaked in the substance and dried
Protocol: Reconstitution of spicules—Native spicules were inactivated by autoclaving for 1 hour and reconstituted with native and recombinant mucunains in the presence or absence of cysteine protease inhibitor, E64. Typically, 50 mg of inactivated spicules were mixed with 0.4 ml of 28 μM mucunain in a 2 ml microfuge tube, vortexed, and dried in a Speed-vac for 2 hours at room temperature. These spicules were then considered as ‘reconstituted’ with the protease alone. Spicules prepared in a similar manner but with E64 added at twice the concentration of mucunain, are considered reconstituted with the protease and the inhibitor.
Psychophysics—These protocols were approved by the Yale University Human Investigation Committee. A row of 10 cowhage spicules were lightly pasted to the flattened end of a Weck-Cel surgical strip, spaced at 1 mm, and applied parallel to the surface of the skin at the mid-volar forearm. […] Every 30 sec, subjects rated the magnitude of each of three qualities of sensation: Itch, pricking/stinging, and burning using the Generalized Labeled Magnitude Scale (Bartoshuk et al. 2004) that employs appropriately placed intensity descriptors of “none”, “barely detectable”, “weak”, “moderate”, “strong”, “very strong” and, at the top of the scale, “the strongest sensation imaginable.” Voltages derived from each subject's movements of a computer mouse that controlled a cursor on a visual representation of this scale were converted to numbers between 0 and 100 and plotted for each quality at successive intervals of 30 s up to 20 min after the insertion of cowhage. […]
The sensory effects of mucunain was further analyzed. […] 50 mg of the inactivated, dried spicules were then soaked in 0.05 ml of the filtered extract containing 0.07 mg of cysteine protease (as determined by non-interfering protein assay) with or without 3.5 micrograms of E-64. […]

PAR4 = experiment: PAR activation by cytoplasmic calcium release, ratiometric Fura-2 imaging, PAR4 transfected HeLa cells; format: cell-based, human; details: Fura-2 340:380 ratiometric imaging
Protocol: PAR activation observed by cytoplasmic calcium release—The four human PAR cDNAs were obtained from commercial sources and cloned into the pcDNA3.1 (−) vector (Invitrogen). HeLa cells were transfected with 10 μg of vector cDNA using Lipofectamine 2000 (Invitrogen) and cultured for two days in 96-well glass bottom plates at 30,000 cells/well. Cells were loaded with Fura-2 as follows. The medium was aspirated and replaced with 100 μl of complete DMEM containing 2 μM Fura-2 (Invitrogen) and kept at room temperature in the dark for 1 hr. The medium was again aspirated and each well received 90 μl of HEPES buffered saline (20 mM HEPES, 115 mM NaCl, 5.4 mM KCl, 2 mM CaCl2, 0.8 mM MgCl2, 13.8 mM glucose, pH 7.4). Plates were observed using a Zeiss Axiovert 200M microscope equipped with a filter wheel for monitoring excitation at 340 and 380 nm. Axiovision software, version 4.6 was used to analyze ratiometric calcium imaging of the cells. Ten μl of protease was applied approximately 20 seconds after the start of excitation. Images were taken every 5 seconds, beginning at time zero, for 3 minutes. The software was used to analyze the 37 images taken during each 3-minute period.

casein = details: 12.5% native casein-zymogram gel, 0.1 μg of each mucunain
Protocol: Zymogram—The zymogram of native and recombinant mucunain was carried out using a 12.5% native casein-zymogram gel as recommended by the supplier (Biorad). The zymogram gel was run with 0.1 μg of each of the mucunains, renatured and developed for protease activity overnight.

[1] = native mucunain 0.9 μM, recombinant mucunain 2.7 μM; room temperature 1 hr; absorbance at 405 nm
Protocol: Chromogenic substrate assay—Native and recombinant mucunain protease activity were measured in a buffer containing 50 mM sodium acetate (pH 5.5), 2.5 mM EDTA, 2.5 mM DTT, and 250 μg/ml Z-Phe-Arg-pNA as the chromogenic substrate. After adding protease, the reaction was incubated at room temperature for 1 hr. Generation of the yellow product, p-nitroaniline, was assayed by measuring the absorbance at 405 nm. Papain served as a control cysteine protease. E64, an irreversible inhibitor of cysteine proteases, was used at a concentration of 10 M. Experiments were performed in triplicate and the error bars represent standard deviation.

Molecule	itch evoked by substance loaded into inactivated spicules (skin of volunteers)	calcium influx in PAR4 transfected HeLa cells (PAR4)	protease activity in zymogram (casein)	cleavage of chromogenic substrate Z-FR-pNA [1]
B1	produced itch	induced calcium influx		
B2	did elicit itch	induced calcium influx	Protease activity was found	
B3	evoked itch and nociceptive sensations			cleaves
